In article doi:10.1101/2023.12.22.573000:

Biological target: T1, RIG-I (recombinant) (human? (GeneID 23586), UniProt O95786 1-925)
T1 sequence: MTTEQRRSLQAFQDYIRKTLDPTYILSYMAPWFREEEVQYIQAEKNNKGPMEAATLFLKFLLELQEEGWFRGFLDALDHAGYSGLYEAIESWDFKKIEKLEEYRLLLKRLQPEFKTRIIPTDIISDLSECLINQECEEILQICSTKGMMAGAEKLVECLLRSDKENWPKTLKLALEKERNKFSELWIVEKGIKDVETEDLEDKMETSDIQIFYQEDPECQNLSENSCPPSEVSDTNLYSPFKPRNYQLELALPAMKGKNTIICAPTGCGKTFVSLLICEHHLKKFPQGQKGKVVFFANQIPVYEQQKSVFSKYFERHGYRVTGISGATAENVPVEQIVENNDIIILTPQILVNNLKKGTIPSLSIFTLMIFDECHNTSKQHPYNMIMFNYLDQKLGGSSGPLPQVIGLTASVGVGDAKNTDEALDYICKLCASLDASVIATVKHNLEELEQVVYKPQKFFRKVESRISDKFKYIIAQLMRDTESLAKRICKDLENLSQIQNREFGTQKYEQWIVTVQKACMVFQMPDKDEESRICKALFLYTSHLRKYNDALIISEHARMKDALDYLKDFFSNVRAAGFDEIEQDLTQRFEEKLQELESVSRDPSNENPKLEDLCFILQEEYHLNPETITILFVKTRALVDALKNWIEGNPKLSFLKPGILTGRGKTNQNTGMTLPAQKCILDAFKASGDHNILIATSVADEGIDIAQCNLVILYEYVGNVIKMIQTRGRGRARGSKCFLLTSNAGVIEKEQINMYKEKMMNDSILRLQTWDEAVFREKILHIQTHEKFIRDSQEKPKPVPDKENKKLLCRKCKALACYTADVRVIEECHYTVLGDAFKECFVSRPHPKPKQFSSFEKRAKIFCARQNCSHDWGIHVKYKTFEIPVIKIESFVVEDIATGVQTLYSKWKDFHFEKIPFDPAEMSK
Assay: EMSA

B1: 5'-pppG synthetic 24 bp dsRNA (dsRNA)
RNA 1: GGCAAAAGCAGGGUGACAAAGACA
RNA 2: UGUCUUUGUCACCCUGCUUUUGCC
modifications: 5'-ppp on sense strand only
Work on B1 yielded a Kd of 0.94 nM.
